We go through nine proteins from PMC523230, “Dictyostelium Myosin Bipolar Thick Filament Formation: Importance of Charge and Specific Domains of the Myosin Rod” (PLoS Biology, 2004).

Numbering of substitutions follows the chain as printed.

The target of data set [1] is P08799. As to the kind of experiment: sedimentation assembly assay; self-assembly into filaments or paracrystals; 10 uM protein added to an equal volume, 10 mM imidazole pH 7.5, 0.1 mM EDTA, 1 mM DTT, 0-250 mM NaCl, on ice at least 30 min, 132,000 x g 15 min 4 °C; supernatant and pellet by SDS-PAGE. The settings on record: other: sedimentation assembly assay.
Data set [2] concerns the molecule itself. The description is as above.
Data set [3] concerns the molecule itself. The data set is described as follows: AUC; sedimentation equilibrium; step: single chains to two-stranded coiled coil; 10.5-52 uM protein, 10 mM Tris pH 7.4, 0.1 mM EDTA, 500 mM NaCl, 10 °C, 10,000 rpm; fit to a single non-associating ideal species.

B1: extended AD (2xAsp) (protein)
chain: MNVEFIRKKDAEIDDLRARLDRETESRIKSDEDKKNTRKQFADLEAKVEEAQREVVTIDRLKKKLESDIIDLSTQLDTETKSRIKIEKSKKKLEQTLAERRAAEEGSSKAADEEIRKQVWQEVDELRAQLDSERAALNASEKKIKSLVAEVDEVKEQLEDEILAKDKLVKAKRALEVELEEVRDQLEEEEDSRSELEDSKRRLTTEVEDIKKKYDAEVEQNTKLDEAKKKLTDDVDTLKKQLEDEKKKLNESERAKKRLESENEDFLAKLDAEVKNRSRAEKDRKKYEKDLKDDKYKLNDEAADKTQTEIG
Consider B1, for which the “fold difference in solubility against extended AD (2xThr)” value in data set [1] is “extended AD (2xThr) and extended AD (2xAsp) show a four-fold difference in solubility”.

B2: extended AD (2xThr) (domain or fragment, Dictyostelium discoideum)
chain: B1 chain with D294T, D304T
notes: N-terminal methionine added before the myosin residues; Dictyostelium myosin-II heavy chain, a.a; 1,531-1,840; also called headless extended AD (2xThr); source: E. coli BL21-CodonPlus (DE3)-RIL, purified (boiling, DEAE, Superdex 200, Mono Q)
Take B2: the binding result in data set [2] is “binds”.

B3: AD-Ala 2 (2xThr) (domain or fragment, Dictyostelium discoideum)
chain: MNVEFIRKKDAEIDDLRARLDRETESRIKSDEDKKNTRKQFADLEAKVEEAQREVVTIDRLKKKLESDIIDLSTQLDTETKSRIKIEKSKKKLEQTLAERRAAEEGSSKAADEEIRKQVWQEVDELRAQLDSERAALNASEKKIKSLVAEVDEVKEQLEDEILAKDKLVKAKRALEVELEEVRDQLEEEEDSRSELEDSKRRLTTEVEDIKKKYDAEVEQNTKLDEAKKKLTDDVDTLKKQLEDEKKKLNESERAKKRLESENEDFLAKLDAEVKNRSRAEKDRKKYEKDLKDTKYKLNDEAATKTQTEIGAAKLEDQIDELRSKLEQEQAKATQADKSKKTLEGEIDNLRAQIEDEGKIKMRLEKEKRALEGELEELRETVEEAEDSKSEAEQSKRLVELELEDARRNLQKEIDAKEIAEDAKSNLQREIVEAKGR
notes: N-terminal methionine added before the myosin residues; Dictyostelium myosin-II heavy chain, a.a; 1,531-1,966 (AD through Ala 2); also called headless AD-Ala2 (2xThr); source: E. coli BL21-CodonPlus (DE3)-RIL, purified (boiling, DEAE, Superdex 200, Mono Q)
In the case of B3, in data set [2], the binding result is given as “binds”.

B4: AD-Cterm (3xAsp) myosin-II tail fragment (domain or fragment, Dictyostelium discoideum)
chain: MNVEFIRKKDAEIDDLRARLDRETESRIKSDEDKKNTRKQFADLEAKVEEAQREVVTIDRLKKKLESDIIDLSTQLDTETKSRIKIEKSKKKLEQTLAERRAAEEGSSKAADEEIRKQVWQEVDELRAQLDSERAALNASEKKIKSLVAEVDEVKEQLEDEILAKDKLVKAKRALEVELEEVRDQLEEEEDSRSELEDSKRRLTTEVEDIKKKYDAEVEQNTKLDEAKKKLTDDVDTLKKQLEDEKKKLNESERAKKRLESENEDFLAKLDAEVKNRSRAEKDRKKYEKDLKDDKYKLNDEAADKTQTEIGAAKLEDQIDELRSKLEQEQAKATQADKSKKTLEGEIDNLRAQIEDEGKIKMRLEKEKRALEGELEELRETVEEAEDSKSEAEQSKRLVELELEDARRNLQKEIDAKEIAEDAKSNLQREIVEAKGRLEEESIARTNSDRSRKRLEAEIDALTAQVDAEQKAKNQQIKENKKIETELKEYRKKFGESEKDKTKEFLVVEKLETDYKRAKKEAADEQQQRLTVENDLRKHLSEISLLKDAIDKLQRDHDKTKRELETETASKIEMQRKMADFFGGFKA
notes: N-terminal methionine added before the myosin residues; Dictyostelium myosin-II heavy chain, a.a; 1,531-2,116, aspartic acids in place of the three threonine phosphorylation sites; Phosphomimetic; also called headless AD-Cterm (3xAsp); 3xAsp tail fragment; source: E. coli BL21-CodonPlus (DE3)-RIL, purified (boiling, DEAE, Superdex 200, Mono Q)
One may read the stoichiometry N as a count of units in the complex or per binding partner. On to B4, for which the “stoichiometry N” value in data set [3] was 2. The “fold difference in solubility against AD-Cterm (3xThr)” value in data set [1] is “eight-fold difference in solubility of full-length unphosphorylated and phosphorylated myosin, respectively, and AD-Cterm (3xThr) and AD-Cterm (3xAsp), respectively”.

B5: AD-Cterm (3xThr) myosin-II tail fragment (domain or fragment, Dictyostelium discoideum)
chain: B4 chain with D294T, D304T, D500T
notes: N-terminal methionine added before the myosin residues; Dictyostelium myosin-II heavy chain, a.a; 1,531-2,116 (assembly domain through C terminus); the assembly rows are about coiled coils joining into paracrystals; also called headless AD-Cterm (3xThr); wild-type tail fragment; source: E. coli BL21-CodonPlus (DE3)-RIL, purified (boiling, DEAE, Superdex 200, Mono Q)
Turning to B5, the “stoichiometry N” value in data set [3] came out at 2.

B6: Ala1-Ala2 (2xThr) (domain or fragment, Dictyostelium discoideum)
chain: MLDEIKRQYADVVSSRDKSVEQLKTLQAKNEELRNTAEEAEGQLDRAERSKKKAEFDLEEAVKNLEEETAKKVKAEKAMKKAETDYRSTKSELDDAKNVSSEQYVQIKRLNEELSELRSVLEEADERCNSAIKAKKTAESALESLKDEIDAANNAKAKAERKSKELEVRVAELEESLEDKSGTVNVEFIRKKDAEIDDLRARLDRETESRIKSDEDKKNTRKQFADLEAKVEEAQREVVTIDRLKKKLESDIIDLSTQLDTETKSRIKIEKSKKKLEQTLAERRAAEEGSSKAADEEIRKQVWQEVDELRAQLDSERAALNASEKKIKSLVAEVDEVKEQLEDEILAKDKLVKAKRALEVELEEVRDQLEEEEDSRSELEDSKRRLTTEVEDIKKKYDAEVEQNTKLDEAKKKLTDDVDTLKKQLEDEKKKLNESERAKKRLESENEDFLAKLDAEVKNRSRAEKDRKKYEKDLKDTKYKLNDEAATKTQTEIGAAKLEDQIDELRSKLEQEQAKATQADKSKKTLEGEIDNLRAQIEDEGKIKMRLEKEKRALEGELEELRETVEEAEDSKSEAEQSKRLVELELEDARRNLQKEIDAKEIAEDAKSNLQREIVEAKGR
notes: N-terminal methionine added before the myosin residues; Dictyostelium myosin-II heavy chain, a.a; 1,348-1,966 (Ala 1 through Ala 2); also called headless Ala1-Ala2 (2xThr); source: E. coli BL21-CodonPlus (DE3)-RIL, purified (boiling, DEAE, Superdex 200, Mono Q)
In the case of B6, the binding result in data set [2] is “binds”.

B7: Ala1-Cterm (3xThr) (domain or fragment, Dictyostelium discoideum)
chain: MLDEIKRQYADVVSSRDKSVEQLKTLQAKNEELRNTAEEAEGQLDRAERSKKKAEFDLEEAVKNLEEETAKKVKAEKAMKKAETDYRSTKSELDDAKNVSSEQYVQIKRLNEELSELRSVLEEADERCNSAIKAKKTAESALESLKDEIDAANNAKAKAERKSKELEVRVAELEESLEDKSGTVNVEFIRKKDAEIDDLRARLDRETESRIKSDEDKKNTRKQFADLEAKVEEAQREVVTIDRLKKKLESDIIDLSTQLDTETKSRIKIEKSKKKLEQTLAERRAAEEGSSKAADEEIRKQVWQEVDELRAQLDSERAALNASEKKIKSLVAEVDEVKEQLEDEILAKDKLVKAKRALEVELEEVRDQLEEEEDSRSELEDSKRRLTTEVEDIKKKYDAEVEQNTKLDEAKKKLTDDVDTLKKQLEDEKKKLNESERAKKRLESENEDFLAKLDAEVKNRSRAEKDRKKYEKDLKDTKYKLNDEAATKTQTEIGAAKLEDQIDELRSKLEQEQAKATQADKSKKTLEGEIDNLRAQIEDEGKIKMRLEKEKRALEGELEELRETVEEAEDSKSEAEQSKRLVELELEDARRNLQKEIDAKEIAEDAKSNLQREIVEAKGRLEEESIARTNSDRSRKRLEAEIDALTAQVDAEQKAKNQQIKENKKIETELKEYRKKFGESEKTKTKEFLVVEKLETDYKRAKKEAADEQQQRLTVENDLRKHLSEISLLKDAIDKLQRDHDKTKRELETETASKIEMQRKMADFFGGFKA
notes: N-terminal methionine added before the myosin residues; Dictyostelium myosin-II heavy chain, a.a; 1,348-2,116 (Ala 1 through C terminus); also called headless Ala1-Cterm (3xThr); source: E. coli BL21-CodonPlus (DE3)-RIL, purified (boiling, DEAE, Superdex 200, Mono Q)
Turning to B7, in data set [2], the binding result was “binds”.

B8: AD (1xThr) myosin-II assembly domain (domain or fragment, Dictyostelium discoideum)
chain: MNVEFIRKKDAEIDDLRARLDRETESRIKSDEDKKNTRKQFADLEAKVEEAQREVVTIDRLKKKLESDIIDLSTQLDTETKSRIKIEKSKKKLEQTLAERRAAEEGSSKAADEEIRKQVWQEVDELRAQLDSERAALNASEKKIKSLVAEVDEVKEQLEDEILAKDKLVKAKRALEVELEEVRDQLEEEEDSRSELEDSKRRLTTEVEDIKKKYDAEVEQNTKLDEAKKKLTDDVDTLKKQLEDEKKKLNESERAKKRLESENEDFLAKLDAEVKNRSRAEKDRKKYEKDLKDTK
notes: N-terminal methionine added before the myosin residues; Dictyostelium myosin-II heavy chain, assembly domain, a.a; 1,531-1,824; also called headless AD (1xThr); 34-kDa assembly domain; source: E. coli BL21-CodonPlus (DE3)-RIL, purified (boiling, DEAE, Superdex 200, Mono Q)
As for B8, in data set [2], the binding result was “binds”.

B9: AD (1xAsp) myosin-II assembly domain (domain or fragment, Dictyostelium discoideum)
chain: B8 chain with T294D
notes: N-terminal methionine added before the myosin residues; Dictyostelium myosin-II heavy chain, assembly domain, a.a; 1,531-1,824; also called headless AD (1xAsp); source: E. coli BL21-CodonPlus (DE3)-RIL, purified (boiling, DEAE, Superdex 200, Mono Q)
Consider B9, for which the binding result in data set [2] was “binds”.
